Experiments:
CD20 = target: T1, CD20 (Homo sapiens, UniProt P11836); assay: Apoptosis by anti-CD20 Fab in a 4-arm PEG linker; type: cell-based; conditions: PEG arm of about 1,000-1,200 daltons (about 25-30 ethylene glycol units)
T1 sequence (P11836 1-297): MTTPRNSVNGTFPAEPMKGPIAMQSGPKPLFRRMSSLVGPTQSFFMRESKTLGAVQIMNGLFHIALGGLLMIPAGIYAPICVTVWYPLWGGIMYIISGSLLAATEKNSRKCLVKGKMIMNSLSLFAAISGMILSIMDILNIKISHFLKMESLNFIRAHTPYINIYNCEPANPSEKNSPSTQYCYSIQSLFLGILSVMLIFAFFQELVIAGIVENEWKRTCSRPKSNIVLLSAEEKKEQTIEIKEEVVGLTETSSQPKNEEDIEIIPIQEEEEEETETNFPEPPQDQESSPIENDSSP

human TNF-α = human TNF-α (Homo sapiens, UniProt P01375); assay: ELISA analysis of purified scFv of adalimumab; type: binding; conditions: compared with Expi-293F-produced scFv of adalimumab
Protocol: The expression plasmid was then transformed into Pichia pastoris by electroporation. To screen for high yield clones, ELISA was performed to measure the expression levels of scFv of adalimumab. Out of 480 transformants, five were selected for further protein induction and examination by SDS-PAGE. The clone scFv_1-A2 was selected for subsequent large-scale fermentation.
The high-yield clone scFv_1-A2 was inoculated in 100 mL of buffered glycerol-complex medium (BMGY, containing 1% yeast extract, 2% peptone, 100 mM K3PO4, 1.34 YNB, 0.4 mg/L biotin and 1% glycerol, pH 6.0) and cultured at 30° C., 200 rpm for 24 hours. On the next day, the culture was changed to a fermentation condition maintaining at 30° C., 30% of dissolved oxygen and pH 6.0. After being fermented for 24 hours, nitrogen source (YE, peptone) and methanol (0.5%, v/v) was added to induce protein expression. The culture supernatant was harvested for protein purification.

Chain of human TNF-α (P01375 77-233 limits assumed): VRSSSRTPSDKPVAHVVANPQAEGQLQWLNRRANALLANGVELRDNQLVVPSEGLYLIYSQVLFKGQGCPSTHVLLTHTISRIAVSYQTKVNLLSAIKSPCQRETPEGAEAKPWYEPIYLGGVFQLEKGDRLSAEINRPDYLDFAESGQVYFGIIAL

Row | Substance | causing apoptosis (CD20) | binding to human TNF-α (ELISA) (human TNF-α)
1 | anti-CD20 (rituximab) Fab in a 4-arm PEG linker: anti-CD20 (rituximab) Fab in a 4-arm PEG linker, PEG arm of about 1,000-1,200 daltons | effective in causing apoptosis | –
2 | yeast-produced scFv of adalimumab: scFv of adalimumab produced by Pichia pastoris clone scFv_1-A2 | – | bound to human TNF-α equally well as Expi-293F-produced scFv of adalimumab

Reference: US10010626B2, “Molecular constructs with targeting and effector moieties” (Immunwork Inc., priority 2015, dated 2018)
